Assay results reported in patent US20090181444A1, “MODIFIED CARBOHYDRATE PROCESSING ENZYME” (priority 2002, published 2009).

Columns and labels:
Type in all cases: biochemical
[1] = Kinetic assay with p-nitrophenyl β-D-galactopyranoside, absorbance at 405 nm; conditions: pNPGal
Method: The kinetic activity of SsδG was assessed using ultra-violet/visible spectroscopy. Cleavage of the glycosidic bond of the nitrophenyl sugar analogue releases a chromophore (Scheme 18), either p-nitrophenol or o-nitrophenol.
The absorbance of these chromophores at 405 nm was continuously measured at regular time intervals, and the Beer-Lambert Law used to calculate the chromophore concentration at each of these time intervals.
In order to use this equation the extinction coefficient, ∈, of both p-nitrophenol and o-nitrophenol were calculated. Enzyme kinetic parameters were assessed using the initial rates method. The gradient of a plot of chromophore concentration against time gave the initial rate of reaction at a series of substrate concentrations (0.05-10 mM). Kinetic parameters were calculated by regression analysis of the kinetic data on the Michaelis-Menten Model (Fersht, A., Enzyme Structure and Mechanism, W.H. Freeman and Company, New York (1985)). The initial rate of reaction was measured. This model is valid when [substrate]>>[enzyme], which are initial rate conditions.
KM and νmax were calculated from non-linear Michaelis-Menten and linear Lineweaver-Burk plots. From these values, kcat and kcat/KM were calculated and compared.
KM=νmax/2, it is the concentration of substrate at which half the active sites are filled. Higher KM values correspond to weaker binding and lower KM values correspond to stronger binding kcat, the turnover number is the number of substrate molecules which are converted to product when the enzyme is saturated with substrate and ν (rate) is maximised. Given both of these considerations, binding and rate, kcat/KM is typically as a measure of the overall relative activity of the enzyme. To allow comparison of the activity of the enzymes, ln({kcat/KM}mutant/{kcat/KM}WT) was calculated for each enzyme-substrate combination, to give overall activity relative to WT.
Substrate solutions (concentration 10 mM in 50 mM pH 6.5 phosphate buffer) were prepared. Kinetic assays were conducted in a 96-well flat bottom microtitre plate. Eight substrate concentrations were chosen for the assay from the range 0.05 mM to 10 mM (prepared from 10 mM stock solution), based on previous experimental experience of the kinetics of each enzyme (default range 0.05 mM to 2.00 mM)*. The enzyme stock solution (˜1 mgmL^−1) was diluted between 16- and 80-fold depending on the kinetic parameters determined*. The enzyme solution (496 µL) was dispensed into a 1.5 mL sealed Eppendorf tube. Into eight further Eppendorf tubes a portion of each substrate solution (650 μL) was dispensed. The tubes were incubated in a Techni Dri Block at 45° C. Simultaneously a 96-well flat bottom microtitre plate was incubated at 45° C. in a plate reader. […] The plate containing the enzyme and substrate solutions was then incubated in the plate reader at 45° C. to allow equilibration. […] Release of p-nitrophenol/o-nitropbenol was measured by absorbance at […], with an automix of 3 s before the first read and Is between every subsequent read. The run time chosen was between 6 min and 10 min*, and readings were taken at intervals of between 6 s and 10 s*.
A graph of concentration of the released chromophore (either pNP or oNP) against time was drawn for each concentration using Microsoft Excel. […] These gradients were entered into Grafit, which calculated KM and νmax from the Michelis-Menten and Lineweaver-Burk plots. From these kcat and kcat/KM could be calculated. […]

[2] = Hydrolysis of 4-methylumbelliferyl-β-D-glucoside, initial rates; conditions: 4-MUGlc, 80° C., pH 6.5
Method: (§1) Parameters were determined by the method of initial rates. Activity was measured in time course assays of the hydrolysis of 4-methylumbelliferyl-β-D-glycosides (β-D-gluco, β-D-galacto, β-D-fuco, β-D-manno, β-D-xylo, β-D-glucurono) at 5-15 concentrations (0.001-1.5 mM) incubated at 80° C. in 50 mM sodium phosphate buffer, pH 6.5. Reactions were terminated at 2, 5, 10, 15 min by the addition of 100 μl of ice cold 1M NazCO3, pH 10 and analyzed (Labsystems Fluoroscan Ascent plate reader, […]). KM and kcat were derived by fitting the initial rates to hyperbolic Michaelis-Menten curves using GraFit 4 (Erithacus Software Ltd, Staines, UK).
(§2) Determination of the Michaelis-Menten parameters for the WT and mutant enzymes was performed at pH 6.5 at 80° C. for a broad range of representative, fluorophore-containing 4-methylumbelliferyl glycoside substrates, which allowed activities to be determined with a high degree of sensitivity (Table). Under these optimized assay conditions, the glucoside (Glc), galactoside (Gal) and fucoside (Fuc) substrates were hydrolysed well by SSβG-WT, but the xyloside (Xyl) substrate was hydrolysed relatively poorly (approx. 3% of turnover as determined by kcat compared with β-D-glucoside). […] In all cases the absolute D-stereospecificity and β-stereoselectivity of SSβG was maintained and no activity was detected towards L- or α-glycoside substrates.

[3] = Hydrolysis of 4-methylumbelliferyl-β-D-glucuronide, initial rates; conditions: 80° C., pH 6.5
Method: as §1, §2

B1: WT: Wild type β-glycosidase from Sulfolobus solfataricus (SEQ ID NO: 2), recombinant with N-terminal His6-tag (protein, listed as Sulfolobus solfataricus)
chain: MYSFPNSFRFGWSQAGFQSEMGTPGSEDPNTDWYKWVHDPENMAAGLVSGDLPENGPGYWGNYKTFHDNAQKMGLKIARLNVEWSRIFPNPLPRPQNFDESKQDVTEVEINENELKRLDEYANKDALNHYREIFKDLKSRGLYFILNMYHWPLPLWLHDPIRVRRGDFTGPSGWLSTRTVYEFARFSAYIAWKFDDLVDEYSTMNEPNVVGGLGYVGVKSGFPPGYLSFELSRRHMYNIIQAHARAYDGIKSVSKKPVGIIYANSSFQPLTDKDMEAVEMAENDNRWWFFDAIIRGEITRGNEKIVRDDLKGRLDWIGVNYYTRTVVKRTEKGYVSLGGYGHGCERNSVSLAGLPTSDFGWEFFPEGLYDVLTKYWNRYHLYMYVTENGIADDADYQRPYYLVSHVYQVHRAINSGADVRGYLHWSLADNYEWASGFSMRFGLLKVDYNTKRLYWRPSALVYREIATNGAITDEIEHLNSVPPVKPLRH
modifications: N-terminal His6 tag
- kcat ([1]; 45° C., pH 6.5 phosphate buffer, averaged over 3 runs, except * 2 runs): 5.07 s⁻¹
- Km ([1]; 45° C., pH 6.5 phosphate buffer, averaged over 3 runs, except * 2 runs, read-out: KM): 459 µM
- Km ([1]; read-out: average KM): 459 µM
- Km [2]: 46 ± 17 µM
- kcat [2]: 140 ± 20 s⁻¹
- kcat ([3]; 4-MUGlcA): 0.81 ± 0.18 s⁻¹
- Km ([3]; 4-MUGlcA, read-out: Km): 1.3 ± 0.4 mM
- β-D-glucuronide activity, turnover relative to β-D-glucoside [3]: ~0.5%
